T1: FcγRIIa R (human, UniProt P12318 34-217)
T1 construct: extracellular domain; also called FcgRIIa R; FcγRIIa type R
T1 sequence (looked up): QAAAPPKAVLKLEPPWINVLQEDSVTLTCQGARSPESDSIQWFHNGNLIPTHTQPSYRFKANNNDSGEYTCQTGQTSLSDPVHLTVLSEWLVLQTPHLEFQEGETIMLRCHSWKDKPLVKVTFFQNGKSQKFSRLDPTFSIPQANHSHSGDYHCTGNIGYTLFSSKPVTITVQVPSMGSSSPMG

T2: FcγRIIb (human, UniProt P31994 43-217)
T2 construct: extracellular domain; also called FcgRIIb
T2 sequence (looked up): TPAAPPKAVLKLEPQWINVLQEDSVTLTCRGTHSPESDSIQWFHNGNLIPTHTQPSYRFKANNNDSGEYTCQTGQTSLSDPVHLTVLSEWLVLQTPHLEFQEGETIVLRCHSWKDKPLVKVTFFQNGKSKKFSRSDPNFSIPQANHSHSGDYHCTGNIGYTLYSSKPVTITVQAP

T3: FcγRIIa R (human, UniProt P12318 34-217)
T3 construct: extracellular domain; Soluble extracellular domain with C-terminal His tag, expressed in FreeStyle293 cells; also called FcgRIIa R; FcγRIIa type R; not shown: His tag attached to the C terminus
T3 sequence (looked up): T1 sequence (looked up)

B1: GpH7-A5/GpH7-B3 variant S298_14T/GpL16-k0 (antibody, human IgG1, kappa)
heavy 1: not shown
heavy 2: not shown
light: DIVMTQSPLSLPVTPGEPASISCQASESLVHSNRNTYLHWYLQKPGQSPQLLIYKVSNRFSGVPDRFSGSGSGTDFTLKISRVEAEDVGVYYCSQNTHVPPTFGQGTKVEIERTVAAPSVFIFPPSDEQLKSGTASVVCLLNNFYPREAKVQWKVDNALQSGNSQESVTEQDSKDSTYSLSSTLTLSKADYEKHKVYACEVTHQGLSSPVTKSFNRGEC
notes: He Ab; IgG1; mutation in one H chain only
B2: GpH7-A5/GpH7-B3 variant S298_20W/GpL16-k0 (antibody, human IgG1, kappa)
heavy 1: not shown
heavy 2: not shown
light: B1 light
notes: as for B1
B3: GpH7-A5/GpH7-B3 variant S298_15Y/GpL16-k0 (antibody, human IgG1, kappa)
heavy 1: not shown
heavy 2: not shown
light: B1 light
notes: as for B1
B4: GpH7-A5/GpH7-B3 variant S298_19Q/GpL16-k0 (antibody, human IgG1, kappa)
heavy 1: not shown
heavy 2: not shown
light: B1 light
notes: as for B1
B5: GpH7-A5/GpH7-B3 variant Y300_12R/GpL16-k0 (antibody, human IgG1, kappa)
heavy 1: not shown
heavy 2: not shown
light: B1 light
notes: as for B1
B6: GpH7-A5/GpH7-B3 variant S298_16H/GpL16-k0 (antibody, human IgG1, kappa)
heavy 1: not shown
heavy 2: not shown
light: B1 light
notes: as for B1
B7: GpH7-A5/GpH7-B3 variant S298_18N/GpL16-k0 (antibody, human IgG1, kappa)
heavy 1: not shown
heavy 2: not shown
light: B1 light
notes: as for B1
B8: GpH7-A5/GpH7-B3 variant Y300_18N/GpL16-k0 (antibody, human IgG1, kappa)
heavy 1: not shown
heavy 2: not shown
light: B1 light
notes: as for B1
B9: GpH7-A5/GpH7-B3 variant Y300_05P/GpL16-k0 (antibody, human IgG1, kappa)
heavy 1: not shown
heavy 2: not shown
light: B1 light
notes: as for B1
B10: GpH7-B3 variant T335_15Y/GpL16-k0 (antibody, human IgG1, kappa)
heavy: not shown
light: B1 light
notes: homodimerized; mutation in both H chains; also called Ho Ab
B11: GpH7-B3 variant K326_06M/GpL16-k0 (antibody, human IgG1, kappa)
heavy: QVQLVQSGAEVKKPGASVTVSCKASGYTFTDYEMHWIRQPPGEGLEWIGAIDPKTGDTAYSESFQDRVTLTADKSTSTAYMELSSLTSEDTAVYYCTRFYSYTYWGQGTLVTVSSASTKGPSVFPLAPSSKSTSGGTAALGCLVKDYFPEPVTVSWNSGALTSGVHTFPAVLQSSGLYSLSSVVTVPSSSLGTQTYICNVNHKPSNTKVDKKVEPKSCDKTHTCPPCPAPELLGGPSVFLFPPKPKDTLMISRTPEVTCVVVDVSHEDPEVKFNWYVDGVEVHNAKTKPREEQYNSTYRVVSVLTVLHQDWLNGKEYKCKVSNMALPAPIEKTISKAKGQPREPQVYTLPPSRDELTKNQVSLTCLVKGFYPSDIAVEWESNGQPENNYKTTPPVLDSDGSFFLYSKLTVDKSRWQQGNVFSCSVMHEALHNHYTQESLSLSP
light: B1 light
notes: as for B10
B12: GpH7-B3 variant G236_10E/GpL16-k0 (antibody, human IgG1, kappa)
heavy: not shown
light: B1 light
notes: as for B10
B13: GpH7-B3 variant T335_06M/GpL16-k0 (antibody, human IgG1, kappa)
heavy: not shown
light: B1 light
notes: as for B10
B14: GpH7-B3 variant I332_04F/GpL16-k0 (antibody, human IgG1, kappa)
heavy: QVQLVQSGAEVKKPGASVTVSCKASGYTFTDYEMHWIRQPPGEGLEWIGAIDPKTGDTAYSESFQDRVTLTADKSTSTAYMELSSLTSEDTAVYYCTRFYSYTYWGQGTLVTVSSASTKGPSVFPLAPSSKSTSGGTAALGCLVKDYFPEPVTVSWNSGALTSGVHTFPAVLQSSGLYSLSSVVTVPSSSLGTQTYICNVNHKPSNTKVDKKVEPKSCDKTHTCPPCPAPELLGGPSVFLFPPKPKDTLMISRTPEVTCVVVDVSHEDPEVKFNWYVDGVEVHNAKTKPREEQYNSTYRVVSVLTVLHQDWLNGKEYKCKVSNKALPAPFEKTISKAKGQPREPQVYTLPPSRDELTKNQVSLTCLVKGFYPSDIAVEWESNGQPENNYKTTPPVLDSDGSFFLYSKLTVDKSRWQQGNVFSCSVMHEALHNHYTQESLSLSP
light: B1 light
notes: as for B10
B15: GpH7-B3 variant I332_09D/GpL16-k0 (antibody, human IgG1, kappa)
heavy: not shown
light: B1 light
notes: as for B10
B16: GpH7-B3 variant H268_13S/GpL16-k0 (antibody, human IgG1, kappa)
heavy: not shown
light: B1 light
notes: as for B10
B17: GpH7-B3 variant L328_07I/GpL16-k0 (antibody, human IgG1, kappa)
heavy: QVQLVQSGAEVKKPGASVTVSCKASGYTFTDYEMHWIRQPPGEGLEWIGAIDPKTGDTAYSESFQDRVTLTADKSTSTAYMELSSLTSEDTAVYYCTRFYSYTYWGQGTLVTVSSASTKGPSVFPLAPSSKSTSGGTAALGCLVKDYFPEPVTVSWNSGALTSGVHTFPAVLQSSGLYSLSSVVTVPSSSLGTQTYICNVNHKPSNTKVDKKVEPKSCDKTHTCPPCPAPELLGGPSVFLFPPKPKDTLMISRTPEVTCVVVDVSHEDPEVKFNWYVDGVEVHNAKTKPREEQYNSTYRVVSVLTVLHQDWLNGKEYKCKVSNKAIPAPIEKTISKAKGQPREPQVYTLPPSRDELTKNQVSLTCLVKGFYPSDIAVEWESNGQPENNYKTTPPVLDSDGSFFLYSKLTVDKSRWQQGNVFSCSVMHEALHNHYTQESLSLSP
light: B1 light
notes: as for B10
B18: GpH7-B3 variant S267_02A/GpL16-k0 (antibody, human IgG1, kappa)
heavy: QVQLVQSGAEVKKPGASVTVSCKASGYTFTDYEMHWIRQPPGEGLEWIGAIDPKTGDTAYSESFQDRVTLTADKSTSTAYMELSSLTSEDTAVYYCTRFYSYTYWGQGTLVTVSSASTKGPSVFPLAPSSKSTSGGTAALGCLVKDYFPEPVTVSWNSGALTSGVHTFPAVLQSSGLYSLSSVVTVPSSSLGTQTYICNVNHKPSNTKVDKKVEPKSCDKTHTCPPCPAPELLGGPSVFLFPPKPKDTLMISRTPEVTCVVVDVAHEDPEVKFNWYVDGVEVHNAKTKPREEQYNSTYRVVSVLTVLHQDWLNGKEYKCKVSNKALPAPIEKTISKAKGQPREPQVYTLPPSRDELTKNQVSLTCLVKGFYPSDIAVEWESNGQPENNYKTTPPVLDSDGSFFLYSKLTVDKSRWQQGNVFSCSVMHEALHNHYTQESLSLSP
light: B1 light
notes: as for B10
B19: GpH7-B3 variant S337_14T/GpL16-k0 (antibody, human IgG1, kappa)
heavy: not shown
light: B1 light
notes: as for B10
B20: GpH7-B3 variant K326_19Q/GpL16-k0 (antibody, human IgG1, kappa)
heavy: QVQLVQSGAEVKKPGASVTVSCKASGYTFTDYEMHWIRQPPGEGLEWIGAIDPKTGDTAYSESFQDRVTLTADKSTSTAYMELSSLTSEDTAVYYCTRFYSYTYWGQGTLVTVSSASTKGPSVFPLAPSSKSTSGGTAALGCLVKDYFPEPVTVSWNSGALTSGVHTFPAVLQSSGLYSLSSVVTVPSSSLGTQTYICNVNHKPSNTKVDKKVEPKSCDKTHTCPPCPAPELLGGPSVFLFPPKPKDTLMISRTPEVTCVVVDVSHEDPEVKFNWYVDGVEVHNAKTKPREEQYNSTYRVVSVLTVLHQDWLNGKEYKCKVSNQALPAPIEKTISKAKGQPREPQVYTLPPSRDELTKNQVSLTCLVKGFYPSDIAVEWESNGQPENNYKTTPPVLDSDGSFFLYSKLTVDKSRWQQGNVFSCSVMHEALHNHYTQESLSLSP
light: B1 light
notes: as for B10
B21: GpH7-B3 variant P238_08L/GpL16-k0 (antibody, human IgG1, kappa)
heavy: not shown
light: B1 light
notes: as for B10
B22: GpH7-B3 variant K334_03V/GpL16-k0 (antibody, human IgG1, kappa)
heavy: not shown
light: B1 light
notes: as for B10
B23: GpH7-B3 variant L328_06M/GpL16-k0 (antibody, human IgG1, kappa)
heavy: not shown
light: B1 light
notes: as for B10
B24: GpH7-B3 variant K334_07I/GpL16-k0 (antibody, human IgG1, kappa)
heavy: not shown
light: B1 light
notes: as for B10
B25: GpH7-B3 variant T335_04F/GpL16-k0 (antibody, human IgG1, kappa)
heavy: not shown
light: B1 light
notes: as for B10
B26: GpH7-B3 variant H268_09D/GpL16-k0 (antibody, human IgG1, kappa)
heavy: not shown
light: B1 light
notes: as for B10
B27: GpH7-B3 variant L328_04F/GpL16-k0 (antibody, human IgG1, kappa)
heavy: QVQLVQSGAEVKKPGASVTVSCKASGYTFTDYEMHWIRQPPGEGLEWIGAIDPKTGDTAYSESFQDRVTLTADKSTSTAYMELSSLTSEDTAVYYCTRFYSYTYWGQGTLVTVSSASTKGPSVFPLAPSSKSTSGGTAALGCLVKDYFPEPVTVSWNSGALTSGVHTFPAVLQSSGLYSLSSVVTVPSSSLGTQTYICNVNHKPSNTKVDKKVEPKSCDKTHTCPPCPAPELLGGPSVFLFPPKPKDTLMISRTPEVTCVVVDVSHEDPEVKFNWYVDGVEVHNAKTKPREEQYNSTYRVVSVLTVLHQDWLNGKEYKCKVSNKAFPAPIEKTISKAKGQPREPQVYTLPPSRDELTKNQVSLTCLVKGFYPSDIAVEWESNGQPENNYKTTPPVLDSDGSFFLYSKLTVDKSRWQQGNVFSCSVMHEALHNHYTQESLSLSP
light: B1 light
notes: as for B10
B28: GpH7-B3 variant K334_15Y/GpL16-k0 (antibody, human IgG1, kappa)
heavy: not shown
light: B1 light
notes: as for B10
B29: GpH7-B3 variant L328_03V/GpL16-k0 (antibody, human IgG1, kappa)
heavy: not shown
light: B1 light
notes: as for B10
B30: GpH7-B3 variant I332_15Y/GpL16-k0 (antibody, human IgG1, kappa)
heavy: not shown
light: B1 light
notes: as for B10
B31: GpH7-B3 variant S239_01G/GpL16-k0 (antibody, human IgG1, kappa)
heavy: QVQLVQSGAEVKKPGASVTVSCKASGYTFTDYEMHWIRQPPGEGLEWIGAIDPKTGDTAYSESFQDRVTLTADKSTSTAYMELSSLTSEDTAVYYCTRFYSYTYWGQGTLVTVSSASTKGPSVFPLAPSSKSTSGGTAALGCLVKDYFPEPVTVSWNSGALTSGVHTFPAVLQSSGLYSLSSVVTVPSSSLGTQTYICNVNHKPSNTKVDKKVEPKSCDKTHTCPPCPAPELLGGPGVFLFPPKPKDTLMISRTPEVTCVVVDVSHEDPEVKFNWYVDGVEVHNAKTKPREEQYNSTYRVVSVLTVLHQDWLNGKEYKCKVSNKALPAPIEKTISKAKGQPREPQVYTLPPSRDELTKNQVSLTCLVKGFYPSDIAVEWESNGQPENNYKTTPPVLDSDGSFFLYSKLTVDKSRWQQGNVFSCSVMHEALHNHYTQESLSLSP
light: B1 light
notes: as for B10
B32: GpH7-B3 variant I332_10E/GpL16-k0 (antibody, human IgG1, kappa)
heavy: not shown
light: B1 light
notes: homodimerized; mutation in both H chains; also called Ho Ab; GpH7-B3-22-10E/GpL16-k0
B33: GpH7-B3 variant K334_14T/GpL16-k0 (antibody, human IgG1, kappa)
heavy: not shown
light: B1 light
notes: as for B10
B34: GpH7-B3 variant K334_16H/GpL16-k0 (antibody, human IgG1, kappa)
heavy: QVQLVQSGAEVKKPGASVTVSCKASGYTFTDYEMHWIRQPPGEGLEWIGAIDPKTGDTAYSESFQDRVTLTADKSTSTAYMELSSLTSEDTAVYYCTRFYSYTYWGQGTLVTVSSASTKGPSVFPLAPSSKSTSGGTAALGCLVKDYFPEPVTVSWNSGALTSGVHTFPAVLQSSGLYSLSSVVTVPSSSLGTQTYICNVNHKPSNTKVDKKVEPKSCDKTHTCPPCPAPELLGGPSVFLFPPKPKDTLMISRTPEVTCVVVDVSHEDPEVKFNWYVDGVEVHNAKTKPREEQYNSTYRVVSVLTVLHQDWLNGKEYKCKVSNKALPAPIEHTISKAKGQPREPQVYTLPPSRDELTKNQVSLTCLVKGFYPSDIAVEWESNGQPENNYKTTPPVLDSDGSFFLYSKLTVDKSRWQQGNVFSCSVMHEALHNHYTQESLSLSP
light: B1 light
notes: as for B10
B35: GpH7-B3 variant L328_15Y/GpL16-k0 (antibody, human IgG1, kappa)
heavy: not shown
light: B1 light
notes: as for B10
B36: GpH7-B3 variant K334_18N/GpL16-k0 (antibody, human IgG1, kappa)
heavy: not shown
light: B1 light
notes: as for B10
B37: GpH7-B3 variant H268_18N/GpL16-k0 (antibody, human IgG1, kappa)
heavy: not shown
light: B1 light
notes: as for B10
B38: GpH7-B3 variant K326_14T/GpL16-k0 (antibody, human IgG1, kappa)
heavy: not shown
light: B1 light
notes: as for B10
B39: GpH7-B3 variant S267_01G/GpL16-k0 (antibody, human IgG1, kappa)
heavy: not shown
light: B1 light
notes: as for B10
B40: GpH7-B3 variant K326_09D/GpL16-k0 (antibody, human IgG1, kappa)
heavy: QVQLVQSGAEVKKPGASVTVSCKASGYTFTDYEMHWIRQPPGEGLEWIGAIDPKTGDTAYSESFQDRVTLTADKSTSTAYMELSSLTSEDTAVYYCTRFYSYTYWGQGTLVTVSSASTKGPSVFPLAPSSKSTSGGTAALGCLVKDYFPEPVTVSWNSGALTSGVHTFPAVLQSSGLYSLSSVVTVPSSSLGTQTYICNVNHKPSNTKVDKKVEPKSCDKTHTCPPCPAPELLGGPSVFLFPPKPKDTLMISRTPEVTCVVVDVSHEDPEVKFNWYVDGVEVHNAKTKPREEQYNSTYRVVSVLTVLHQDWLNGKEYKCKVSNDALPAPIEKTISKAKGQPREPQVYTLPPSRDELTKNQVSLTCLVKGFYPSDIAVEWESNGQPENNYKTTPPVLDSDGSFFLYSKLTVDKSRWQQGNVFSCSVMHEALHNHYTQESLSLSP
light: B1 light
notes: as for B10
B41: GpH7-B3 variant K326_16H/GpL16-k0 (antibody, human IgG1, kappa)
heavy: not shown
light: B1 light
notes: as for B10
B42: GpH7-B3 variant G236_09D/GpL16-k0 (antibody, human IgG1, kappa)
heavy: not shown
light: B1 light
notes: as for B10
B43: GpH7-B3 variant S267_07I/GpL16-k0 (antibody, human IgG1, kappa)
heavy: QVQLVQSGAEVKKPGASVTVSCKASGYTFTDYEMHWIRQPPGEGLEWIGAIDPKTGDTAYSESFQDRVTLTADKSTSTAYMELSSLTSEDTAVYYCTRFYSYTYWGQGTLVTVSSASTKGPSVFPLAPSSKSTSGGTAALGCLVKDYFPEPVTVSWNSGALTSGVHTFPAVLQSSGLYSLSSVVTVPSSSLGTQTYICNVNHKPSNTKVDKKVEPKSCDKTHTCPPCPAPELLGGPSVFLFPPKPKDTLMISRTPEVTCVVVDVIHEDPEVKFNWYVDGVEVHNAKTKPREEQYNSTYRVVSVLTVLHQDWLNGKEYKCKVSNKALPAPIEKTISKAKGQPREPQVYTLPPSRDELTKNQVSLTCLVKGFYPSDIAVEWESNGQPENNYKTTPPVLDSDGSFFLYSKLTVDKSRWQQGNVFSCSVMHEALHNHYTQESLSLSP
light: B1 light
notes: as for B10
B44: GpH7-B3 variant S239_09D/GpL16-k0 (antibody, human IgG1, kappa)
heavy: not shown
light: B1 light
notes: homodimerized; mutation in both H chains; also called Ho Ab; GpH7-B3-06-09D/GpL16-k0
B45: GpH7-B3 variant H268_10E/GpL16-k0 (antibody, human IgG1, kappa)
heavy: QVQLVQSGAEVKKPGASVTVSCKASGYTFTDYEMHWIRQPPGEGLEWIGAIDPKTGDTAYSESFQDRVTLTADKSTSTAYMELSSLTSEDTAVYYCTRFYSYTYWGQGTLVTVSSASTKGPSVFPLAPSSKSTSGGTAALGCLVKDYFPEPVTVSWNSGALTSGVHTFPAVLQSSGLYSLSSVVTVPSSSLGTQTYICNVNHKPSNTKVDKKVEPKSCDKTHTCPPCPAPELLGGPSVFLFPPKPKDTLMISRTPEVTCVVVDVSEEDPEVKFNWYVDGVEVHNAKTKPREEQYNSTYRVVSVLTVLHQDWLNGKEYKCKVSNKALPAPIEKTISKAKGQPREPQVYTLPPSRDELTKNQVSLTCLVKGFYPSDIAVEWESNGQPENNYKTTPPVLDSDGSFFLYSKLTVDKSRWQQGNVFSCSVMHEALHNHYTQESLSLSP
light: B1 light
notes: as for B10
B46: GpH7-B3 variant K326_10E/GpL16-k0 (antibody, human IgG1, kappa)
heavy: not shown
light: B1 light
notes: as for B10

molecular target: T1, FcγRIIa R; experiment: He/Con_2aR divided by He/Con_2b (FcγRIIa R over FcγRIIb); SPR (Biacore)

Row | IIaR/IIb (He_2aR/2b) [ratio] | Binder
1 | 1.26 | B1
2 | 1.35 | B2
3 | 1.29 | B3
4 | 1.3 | B4
5 | 1.34 | B5
6 | 1.39 | B6
7 | 1.41 | B7
8 | 1.21 | B8
9 | 1.47 | B9

molecular target: T1, FcγRIIa R; experiment: SPR (Biacore), captured antibody, FcγR analyte; binding relative to GpH7-A5/GpH7-B3/GpL16-k0 = 100

Row | He/Con_2aR (IIaR binding) [control=100] | Binder
10 | 98.5 | B1
11 | 55.4 | B2
12 | 79.1 | B3
13 | 95 | B4
14 | 55.1 | B5
15 | 88.5 | B6
16 | 68 | B7
17 | 100 | B8
18 | 10.8 | B9

molecular target: T2, FcγRIIb; experiment: as above

Row | He/Con_2b (IIb binding) [control=100] | Binder
19 | 77.9 | B1
20 | 41.1 | B2
21 | 61.4 | B3
22 | 73.3 | B4
23 | 41.2 | B5
24 | 63.5 | B6
25 | 48.1 | B7
26 | 82.7 | B8
27 | 7.3 | B9

molecular target: T3, FcγRIIa R; experiment: SPR (Biacore), antibody captured via antigen peptide, FcγRIIa R as analyte; homodimerized antibody
Protocol: Analysis of interaction between objective antibody and the FcγR was carried out using Biacore T100 (GE Healthcare). HBS-EP+ (GE Healthcare) was used as the running buffer, and the measurement temperature was set to 25° C. Chips produced by immobilizing the antigen peptide by the amine coupling method to a Series S Sencor Chip CM5 (GE Healthcare), or alternatively, chips produced by allowing preliminarily biotinylated antigen peptides to interact with and immobilize onto a Series S Sensor Chip SA (certified) (GE Healthcare) were used. Antibodies of interest were captured onto an antigen peptide-immobilized chip, and allowed to interact to each FcγR diluted with running buffer. To regenerate and repeatedly use the chip, the antibodies captured on the chip were washed off by reacting 10 mM glycine-HCl, pH 1.5.

Row | Ho/Con_2aR | Binder
28 | 107 % of control (GpH7-B3/GpL16-k0 = 100) | B10
29 | 143 % of control (GpH7-B3/GpL16-k0 = 100) | B11
30 | 140 % of control (GpH7-B3/GpL16-k0 = 100) | B12
31 | 107 % of control (GpH7-B3/GpL16-k0 = 100) | B13
32 | 109 % of control (GpH7-B3/GpL16-k0 = 100) | B14
33 | 127 % of control (GpH7-B3/GpL16-k0 = 100) | B15
34 | 135 % of control (GpH7-B3/GpL16-k0 = 100) | B16
35 | 140 % of control (GpH7-B3/GpL16-k0 = 100) | B17
36 | 160 % of control (GpH7-B3/GpL16-k0 = 100) | B18
37 | 110 % of control (GpH7-B3/GpL16-k0 = 100) | B19
38 | 137 % of control (GpH7-B3/GpL16-k0 = 100) | B20
39 | 148 % of control (GpH7-B3/GpL16-k0 = 100) | B21
40 | 123 % of control (GpH7-B3/GpL16-k0 = 100) | B22
41 | 124 % of control (GpH7-B3/GpL16-k0 = 100) | B23
42 | 121 % of control (GpH7-B3/GpL16-k0 = 100) | B24
43 | 108 % of control (GpH7-B3/GpL16-k0 = 100) | B25
44 | 157 % of control (GpH7-B3/GpL16-k0 = 100) | B26
45 | 145 % of control (GpH7-B3/GpL16-k0 = 100) | B27
46 | 112 % of control (GpH7-B3/GpL16-k0 = 100) | B28

Row | Ho/Con_2aR | Binder
47 | 116 % of control (GpH7-B3/GpL16-k0 = 100) | B29
48 | 111 % of control (GpH7-B3/GpL16-k0 = 100) | B30
49 | 132 % of control (GpH7-B3/GpL16-k0 = 100) | B31
50 | 123 % of control (GpH7-B3/GpL16-k0 = 100) | B32
51 | 117 % of control (GpH7-B3/GpL16-k0 = 100) | B33
52 | 111 % of control (GpH7-B3/GpL16-k0 = 100) | B34
53 | 157 % of control (GpH7-B3/GpL16-k0 = 100) | B35
54 | 113 % of control (GpH7-B3/GpL16-k0 = 100) | B36
55 | 134 % of control (GpH7-B3/GpL16-k0 = 100) | B37
56 | 141 % of control (GpH7-B3/GpL16-k0 = 100) | B38
57 | 116 % of control (GpH7-B3/GpL16-k0 = 100) | B39
58 | 158 % of control (GpH7-B3/GpL16-k0 = 100) | B40
59 | 123 % of control (GpH7-B3/GpL16-k0 = 100) | B41
60 | 107 % of control (GpH7-B3/GpL16-k0 = 100) | B42
61 | 113 % of control (GpH7-B3/GpL16-k0 = 100) | B43
62 | 142 % of control (GpH7-B3/GpL16-k0 = 100) | B44
63 | 154 % of control (GpH7-B3/GpL16-k0 = 100) | B45
64 | 156 % of control (GpH7-B3/GpL16-k0 = 100) | B46

— patent US20180155451A1 (published 2018)
